Assay results reported in US20120220029, “MUTANT SOX PROTEINS AND METHODS OF INDUCING PLURIPOTENCY” (Agency for Science, Technology and Research, published 2012).

Columns and labels:
Assay in all cases: EMSA
[1] = molecular target: T1, Sox2HMG1/Oct4POU (Mus musculus, UniProt P48432;P20263 P48432:33-141,P20263:126-289); settings: label: 5'-Cy5
Description: (§1) Electrophoretic mobility shift assays: All EMSAs were carried out using double-stranded 5′ Cy5-labeled DNA (Sigma Proligo, see Table 1) (Jauch, R., et al. J. Mol. Biol. (2008) 376(3):758-70). Binding buffer contains 20 mM Tris-HC1 pH 8.0, 50 μM ZnCl₂, 100 mM KCl, 10% glycerol, 2 mM 13-merceptoethanol, 0.1 mg/ml bovine serum albumin (BSA) and 0.1% (v/v) Igepal CA-630. 250nM dsDNA probes were mixed with analyte proteins singly or in combinations in binding buffer and incubated for 1 hr at 4° C. in dark. Samples were loaded into a pre-run 12% (w/v) IX Tris-glycine polyacrylamide gel in 1XTG (25 mM Tris, pH 8.3; 192 mM glycine) buffer to separate different species of bound and unbound probes. The fluorescence was detected using a Typhoon 9140 PhosphorImager (Amersham Biosciences).
(§2) FIG. 8: Differential assembly of Sox2HMG and Oct4POU (A) and Sox17HMG and Oct4 (E) on a series of different motif configurations. Motif configurations were systematically designed as outlined in FIG. 1A using 30bp DNA elements containing identical Sox (CATTGTC) and Oct4 (ATGCAAAT) consensus sequences flanked by GC rich sequences. To minimize binding anomalies due to cryptic elements at the periphery or within the spacer region we used idealized motifs (CATTGTC for sox and ATGCAAAT for oct) and introduced G's and C's as spacer and boundary nucleotides. Each DNA element was mixed with individual transcription factor proteins as well as with both Sox2 and Oct4 DBDs in combination (See supplementary information). 250 nM of every cy5-labelled DNA element was incubated with 50 nM Sox2HMG1/Sox17HMG and 250 nM Oct4POU proteins alone and in combination followed by PAGE to assess the formation of ternary Sox/Oct4/DNA complex. The position of the various protein DNA complexes are marked by arrows. The number of spacer basepairs is indicated above and below the gels. X=-1 denotes the compressed and X=0 the canonical elements. The co-occurrence of canonical and compressed motifs within genomic regions co-bound by Sox2 and Oct4 in mouse embryonic stem cells are depicted in (B). […]

[2] = molecular target: T2, Sox17HMG/Oct4POU (Mus musculus, UniProt Q61473;P20263 Q61473:68-136,P20263:126-289); settings: label: 5'-Cy5
T2 sequence (Q61473 68-136, chain 1 of 2): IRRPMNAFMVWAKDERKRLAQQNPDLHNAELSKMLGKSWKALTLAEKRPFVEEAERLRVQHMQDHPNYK
T2 sequence (P20263 126-289, chain 2 of 2): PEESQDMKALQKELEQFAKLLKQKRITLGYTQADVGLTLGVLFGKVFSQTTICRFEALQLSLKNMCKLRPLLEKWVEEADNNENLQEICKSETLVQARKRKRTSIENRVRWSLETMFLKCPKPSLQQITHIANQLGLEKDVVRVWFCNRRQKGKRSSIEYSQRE
Description: as §1, §2

[3] = molecular target: Sox7HMG/Oct4POU (Mus musculus, UniProt P40646;P20263 P40646:45-113,P20263:126-289); settings: label: 5'-Cy5
Sox7HMG/Oct4POU, sequence (P40646 45-113, chain 1 of 2): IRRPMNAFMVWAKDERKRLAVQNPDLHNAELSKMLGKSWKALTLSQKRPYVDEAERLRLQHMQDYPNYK
Sox7HMG/Oct4POU, sequence (P20263 126-289, chain 2 of 2): as the sequence (P20263 126-289, chain 2 of 2) above
Description: as §1
(§3) FIG. 1: EMSAs to assess Sox7, Sox2HMGs and spacer nucleotides. To exclude artifacts that could have been caused by the length difference between the Sox2/Sox17 constructs, the differential assembly of the core Sox2HMG domain (termed Sox2HMGs) was tested. The domain spans the same range of amino acids of the Sox17 construct. The differential assembly of Sox7, another F group Sox protein with strong sequence similarities to Sox17 was also tested. Sox7 and Sox17 had comparably weak Oct4 heterodimerization on canonical elements whereas cooperative binding was observed on the compressed element. Thirdly, the spacer nucleotide of the canonical element on the remaining three possible nucleotides was varied (CATTGT(C/A/T/G)ATGCAAAT). The identity of the spacer nucleotide was found not to have a pronounced impact on the overall dimerization profile of the various Sox protein with Oct4. 50nM of Sox2HMGs, Sox7HMG and Sox17HMG were incubated with canonical elements containing different basebairs at position 7 of the Sox motif (C₁A₂T₃T₄G₅T₆(A/T/C/G)₇; A-D) and on the compressed element (E) in the absence (Lanes 1-3) or presence (Lanes 4-6) of 250 nM Oct4POU.

[4] = molecular target: T3, Sox2HMGs (core HMG)/Oct4POU (Mus musculus, UniProt P48432;P20263 P48432:43-111,P20263:126-289); settings: label: 5'-Cy5
T3 sequence (P48432 43-111, chain 1 of 2): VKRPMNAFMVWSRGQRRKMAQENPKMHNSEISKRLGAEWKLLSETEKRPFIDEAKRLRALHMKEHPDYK
T3 sequence (P20263 126-289, chain 2 of 2): as the sequence (P20263 126-289, chain 2 of 2) above
Description: as §1, §3

[5] = molecular target: T4, Oct4 POU domain (Mus musculus, UniProt P20263 P20263:126-289); settings: tags: N-terminal MBP tag removed by TEV protease; label: 5'-Cy5
T4 sequence (P20263 126-289, one chain of several): as the sequence (P20263 126-289, chain 2 of 2) above
Description: as §1
(§4) FIG. 9: (A) Differential assembly of Sox2/Oct4 and Sox17/Oct4 on the compressed and canonical elements. Proteins were added to 250nM DNA elements in the sequences indicated above the lanes. To distinguish shifts caused by Sox2 and Sox17 a N and C-terminally extended Sox2-HMG (Sox2HMG1) domain was used in these experiments. As a consequence, both, the Sox2/DNA and the Sox2/Oct4/DNA complex, migrate slower than the corresponding Sox17 complexes, allowing us to visualize a Sox2/Oct4 and Sox17/Oct4 DNA complex on the same gel. […]

[6] = molecular target: Sox2HMG1 (extended HMG domain) (Mus musculus, UniProt P48432 SEQ:33-141); settings: label: 5'-Cy5
Sox2HMG1 (extended HMG domain), sequence (P48432 33-141): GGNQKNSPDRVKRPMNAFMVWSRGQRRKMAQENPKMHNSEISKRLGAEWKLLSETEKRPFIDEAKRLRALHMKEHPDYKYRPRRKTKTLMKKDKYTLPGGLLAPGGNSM
Description: as §1, §4

[7] = molecular target: Sox17HMG (Mus musculus, UniProt Q61473 SEQ:68-136); settings: label: 5'-Cy5
Sox17HMG, sequence (Q61473 68-136): as the sequence (Q61473 68-136, chain 1 of 2) above

[8] = molecular target: T1, Sox2HMG1/Oct4POU; settings: label: 5'-Cy5; remark: listed apart in the source
Description: as §1
Profiling of Sox/Oct4 Binding to Differentially Configured Motifs: To assess the preference of Sox2 and Oct4 to physically assemble on differentially configured sox/oct motifs in vitro, electrophoretic mobility shift assays (EMSA) were conducted using purified DNA binding domains (DBDs) of Sox2 and Oct4. The heterodimerization potential of Sox2/Oct4 DBD pairs was screened on a panel of systematically modified sox/oct composite motifs (FIG. 7A). A strong cooperative interaction of Sox2 and Oct4 on the canonical element was observed (x=0, FIG. 8A, lanes 5-7). […]

[9] = molecular target: T4, Oct4 POU domain; settings: tags: N-terminal MBP tag removed by TEV protease; label: 5'-Cy5; remark: listed apart in the source
[10] = molecular target: Sox17EK HMG/Oct4POU (Mus musculus, UniProt Q61473;P20263 Q61473:68-136,P20263:126-289, Sox17 E122K); settings: label: 5'-Cy5
Sox17EK HMG/Oct4POU, sequence (Q61473 68-136 E122K, chain 1 of 2): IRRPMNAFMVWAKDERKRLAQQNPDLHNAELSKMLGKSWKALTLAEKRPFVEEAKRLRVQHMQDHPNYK
Sox17EK HMG/Oct4POU, sequence (P20263 126-289, stated change not applied, chain 2 of 2): as the sequence (P20263 126-289, chain 2 of 2) above
Description: (§5) 250nM dsDNA probes were mixed with analyte proteins singly or in combinations in binding buffer and incubated for 1 hr at 4° C. in dark. Samples were loaded into a pre-run 12% (w/v) IX Tris-glycine polyacrylamide gel in 1XTG (25 mM Tris, pH 8.3; 192 mM glycine) buffer to separate different species of bound and unbound probes. The fluorescence was detected using a Typhoon 9140 PhosphorImager (Amersham Biosciences).
(§6) FIG. 10: (A) Alignment of the amino acid sequence of all mouse Sox proteins. The Sox subfamilies (Bowles, J. et al., Dev. Biol. (2000) 227: 239-55) are indicated to the right. The numbering corresponds to the Sox17 sequence. Alpha helices are marked with a red bar. The FM wedge is indicated with an orange bar below the alignment and further DNA interacting residues are marked by black closed circles. Highly conserved and similar sequences are shaded in black or gray. The position of glutamate and lysine residues distinguishing Sox17 and Sox2 is marked by an arrow. The eight amino acids in helix 3 of Sox2 that were replaced by their corresponding counterparts found in Sox17 to construct the Sox2″¹⁷ protein are colored red. (B) structural model prepared using pymol by using the structural coordinates for Sox17 and the Sox2/Oct1 on DNA. The van-der-Waals surface of the DNA derived from the Sox2/Oct1 structure is shown in light gray. Sox17 (blue) was superimposed onto Sox2 (gray). Oct1 is shown in black. Note that the linker region connecting the POU specific and the POU homedomain is not present in the NMR derived model due to structural disorder. The glutamate (Sox17) and the lysine (Sox2) that were mutated are shown as ball-and-sticks. Note that the lysine exists in two alternative conformations in the NMR model. (C)Point mutations at the Sox/Oct4 interface swap the differential assembly behavior of Sox2 and Sox17 on the canonical versus the compressed element DNA element derived from a functional sox/oct element within the Nanog enhancer were used (Rodda, D. J. et al. J Biol Chem (2005) 280:24731-7). 2 denotes Sox2HMGs, 17: Sox17HMG, 2KE: Sox2KE, 17EK: Sox17EK and 2α17 the replacement of all Sox2 residues in helix 3 that differ from the corresponding Sox17 residues into their Sox17 counterpart. Sox proteins were incubated with DNA individually and in combination with Oct4.

[11] = molecular target: T3, Sox2HMGs (core HMG)/Oct4POU; settings: label: 5'-Cy5; remark: listed apart in the source
Description: as §5, §6

[12] = molecular target: Sox2KE HMG/Oct4POU (Mus musculus, UniProt P48432;P20263 P48432:43-111,P20263:126-289, Sox2 K95E); settings: label: 5'-Cy5
Sox2KE HMG/Oct4POU, sequence (P48432 43-111, stated change not applied, chain 1 of 2): as the sequence (P48432 43-111, chain 1 of 2) above
Sox2KE HMG/Oct4POU, sequence (P20263 126-289, stated change not applied, chain 2 of 2): as the sequence (P20263 126-289, chain 2 of 2) above
Description: as §5, §6

[13] = molecular target: T2, Sox17HMG/Oct4POU; settings: label: 5'-Cy5; remark: listed apart in the source
Description: as §5, §6

T1 sequence (P48432 33-141, chain 1 of 2): as the sequence (P48432 33-141) above
T1 sequence (P20263 126-289, chain 2 of 2): as the sequence (P20263 126-289, chain 2 of 2) above

B1: compressed sox/oct (-1) (dsDNA)
DNA 1: CGGCGCGGCATTGTATGCAAATCGGCGGCG
DNA 2: CGCCGCCGATTTGCATACAATGCCGCGCCG
**Q.** What does the source list for B1?
**A.** binding result [1]: no binding; binding result [2]: binds; binding result [3]: binds; binding result [4]: no binding; binding result [5]: binds; binding result [6]: binds; binding result [7]: binds

B2: order (dsDNA)
DNA 1: GGCGCGGATGCAAATCATTGTCCGGCGGCG
DNA 2: CGCCGCCGGACAATGATTTGCATCCGCGCC
**Q.** Does B2 bind [8]?
**A.** no binding

B3: canonical sox/oct (0) (dsDNA)
DNA 1: GGCGCGGCATTGTCATGCAAATCGGCGGCG
DNA 2: CGCCGCCGATTTGCATGACAATGCCGCGCC
**Q.** Which results are given for B3?
**A.** binding result [1]: binds; binding result [4]: binds; binding result [9]: binds; binding result [7]: binds

B4: Nanog canonical (dsDNA)
DNA 1: CATGGACATTGTAATGCAAAAGAAGCTG
DNA 2: CAGCTTCTTTTGCATTACAATGTCCATG
**Q.** Does B4 bind [10]?
**A.** binds

**Q.** Does B4 bind [11]?
**A.** binds

B5: Nanog' compressed (-1) (dsDNA)
DNA 1: CTGGACATTGTATGCAAAAGAA
DNA 2: TTCTTTTGCATACAATGTCCAG
**Q.** Does B5 bind [12]?
**A.** binds

**Q.** Does B5 bind [10]?
**A.** no binding

**Q.** Does B5 bind [13]?
**A.** binds
